# The supplement of paper PMC12042874
# ± gives the uncertainty stated by the source.
# Assay: amyloid nucleation score (Sup35N fusion, yeast selection) (log enrichment); library NNK1; higher = more nucleation; inactive = no reads after selection
# Method in brief: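 Peptides of 20 random codons fused to Sup35N were expressed in psi-negative yeast, induced 24 hours with 100 μM copper sulfate, then grown 7 days at 30°C on medium lacking adenine and uracil. Input and output plasmid inserts were Illumina-sequenced. Nucleation score is the DiMSum log enrichment of output over input reads, centred on the mode score of non-aggregating sequences, excluding sequences with under 100 input reads. Random libraries had three technical output replicates.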
row,Substance,amyloid nucleation score
1,KWVIGRTVLGRADVRWSSGR,1.58 ± 0.46
2,KYIYNPSPLGSREDDTKACR,0.937 ± 0.49
3,KYKRSYTLDHVFYMSSPGVR,0.824 ± 0.73
4,KYLPPQVSSGWI,1.01 ± 0.37
5,KYRASYRNHRDMGDSAVYGY,0.044 ± 0.26
6,KYWVGWAVSFCVWYLTRLWE,0.337 ± 0.67
7,KYWWY,0.265 ± 0.2
8,LAFTNRVVVWESWSAMAVRW,-0.173 ± 0.66
9,LAIFSMFALFSIFGWSNDFT,-0.309 ± 0.43
10,LAISL,-0.444 ± 0.36
11,LAIVGQACRGVVEHARVSGH,0.136 ± 0.41
12,LAKFESSEVACSLFFAISLA,-0.997 ± 0.94
13,LAKGGPL,-0.813 ± 0.54
14,LALLWDMPF,-2.19 ± 2.7
15,LALMFFNLKSCIFMSMWLFT,1.65 ± 0.57
16,LALPIFAFER,-0.839 ± 0.46
17,LAMFHSWGVGFATLGVKISE,1.04 ± 0.78
18,LAPASLSSSGYKNCFNRTVR,4.08 ± 0.11
19,LAQELGR,1.68 ± 0.73
20,LASSIFASFRTFVQPSVSGY,-0.146 ± 0.48
21,LCCRLMTTICPKLCSVLLMS,0.217 ± 0.28
22,LCEVRDCWVL,0.783 ± 0.41
23,LCFMLEKWHLF,-0.566 ± 1.1
24,LCGISSSCYVVGSLRVIWLS,0.147 ± 0.65
25,LCKPCLGY,0.639 ± 0.24

row,Substance,amyloid nucleation score
1,LCLGCGYGEETI,0.069 ± 0.37
2,LCLLPG,0.888 ± 0.5
3,LCLSCLWMGETRPRSNPVNL,6.24 ± 0.068
4,LCLVFVNLVLQRYGIASWYT,0.531 ± 0.3
5,LCMVAQLWYQPV,2.01 ± 0.16
6,LCVFVKAGVCWGRTVIRKSG,inactive
7,LDFMSLHN,0.218 ± 1
8,LDGGIIRRILVIVKCWGRCC,0.108 ± 0.2
9,LDHYDVSGNRMVL,-0.487 ± 0.27
10,LDIRVCRLPRSVFNR,-0.002 ± 1
11,LDLSSWGTVP,0.122 ± 0.44
12,LDMKSFEQLVKQLPCTWADD,0.222 ± 0.41
13,LDSDGVASYDTRMSIRWYIE,2 ± 0.49
14,LDWAWFYCSRNKRFSTILFR,0.138 ± 0.79
15,LDYSSRSPLTDLST,0.041 ± 0.65
16,LECYEVYRYRKCLCCIVCVC,0.633 ± 0.42
17,LEGVFAAALSNKMIRYIRDV,1.19 ± 0.53
18,LERYVSMRFSWWDSSKKNTW,4.18 ± 0.086
19,LFDNFIAHMGCSRIPYDSHS,-0.086 ± 0.3
20,LFFTGVHRKF,4.28 ± 0.064
21,LFHANQKHAGWSRASTLEAC,-0.954 ± 0.54
22,LFHCRSIDRNLYYRHAFLIY,0.466 ± 0.39
23,LFHLPSVYIWFYAT,6.723 ± 0.053
24,LFIDVSR,-0.021 ± 1.6
25,LFLCMDTYIYLNLNSGGYSG,4.8 ± 0.1

row,Substance,amyloid nucleation score
1,LFLHVSMVS,-1.31 ± 1.4
2,LFLKRGPSCTCLLRKSTIEH,0.182 ± 0.69
3,LFNGLYHLVMRVMWRRLV,-0.061 ± 1.2
4,LFRRRKITTVYIDKNAMLTS,inactive
5,LFVHFLTLSVISHYPRGN,inactive
6,LFVLKTWLRNSDWFRYDESQ,-0.094 ± 0.68
7,LFYLFPELMWDMQLCKVDGW,1.4 ± 0.44
8,LGFAA,-0.339 ± 1.3
9,LGFAW,0.003 ± 0.45
10,LGFQLFNQGWAQNSTPRFSY,-1.29 ± 1.9
11,LGGVSSVLFYSHFLQVLEWC,-1.12 ± 0.78
12,LGIFSNIYGFV,0.277 ± 0.45
13,LGLDGCSSMLEEDFCR,0.45 ± 0.52
14,LGLGQSGRV,-0.15 ± 0.71
15,LGLMTFFVWFNWG,-1.43 ± 1
16,LGRGSGYRVLVMYLSVHC,0.164 ± 0.29
17,LGRKKGFMTYSGLYYVRLWA,-0.81 ± 1.4
18,LGRRIPCNLEWHHLDGALTR,0.013 ± 0.36
19,LGRSENDI,1.19 ± 0.4
20,LGSRFMRV,0.635 ± 1.2
21,LGSVDIRAQCLVNMNMLLSS,0.308 ± 0.43
22,LGTKL,0.601 ± 0.63
23,LGTSEKGNRKNR,inactive
24,LGTVRVLEHEVVWHYVLEAR,0.485 ± 0.6
25,LGVMMFRCVL,3.79 ± 0.16

row,Substance,amyloid nucleation score
1,LGVPRVISCSCHLSVRNSAK,0.413 ± 0.9
2,LHAGHSSLNALAYSFRLHDR,0.775 ± 0.52
3,LHAGRDSAASGPRISIWKPM,0.077 ± 0.38
4,LHAYTLSYGLLVLSARSHEL,-0.01 ± 0.67
5,LHCARGLVRRNMSSSLRWLA,inactive
6,LHESVFSWSSKLSLRHGYLR,0.159 ± 0.7
7,LHIFLTLHNQHVWARNGGKL,0.603 ± 0.35
8,LHIIRRNRDSIAFVYWTV,0.756 ± 0.41
9,LHLFGQ,0.067 ± 0.38
10,LHMTFFTPVDLVVQRTDFRL,0.971 ± 0.52
11,LHRSQMIFMCLSVTYSAK,-0.209 ± 0.47
12,LHTAETGRLHNAYVILVVYC,inactive
13,LHVISGFYKCRTKRL,0.862 ± 0.32
14,LIAPGFPERCRQGRMYEF,-0.234 ± 1.2
15,LICNFRLSRYQSAVNVVYWV,0.802 ± 0.14
16,LIFNQLWWRKSMCLQVRPGQ,-1.25 ± 0.92
17,LIFRRGTALFVLPVARYRCA,-1.57 ± 1.8
18,LIGFAGRVYGAFLQVSMTWN,3.2 ± 0.15
19,LIGRIGDFLA,0.097 ± 0.72
20,LILSYAN,1.33 ± 0.66
21,LINDRPPSSAMERRNVATSS,0.096 ± 0.57
22,LIRMHTICVWDSSVIMSIMA,-0.354 ± 0.44
23,LISCIRFYCSVLGVDCTDSV,0.235 ± 0.39
24,LIYVLYLY,0.501 ± 0.55
25,LKAHPSVTSCPVRSLI,-0.281 ± 0.39

row,Substance,amyloid nucleation score
1,LKMFSRPCVMIKNRTGVR,0.452 ± 0.33
2,LKSSNVPTRNVMRYMPSAFE,-0.292 ± 0.59
3,LLATCVRVECY,1.58 ± 0.51
4,LLCFLFTK,3.32 ± 0.15
5,LLDKISNRPTQYGTTVPPVP,0.573 ± 0.45
6,LLFHSGWMMNGNPWACWYRE,1.89 ± 0.25
7,LLFTNEKHNSLVNQGTPEWC,0.13 ± 0.9
8,LLGRLVQCCRPWY,-1.17 ± 2.7
9,LLGYLAMCS,1.01 ± 0.23
10,LLIALFSW,1.34 ± 0.25
11,LLIVYYNVDITQCRWFTELC,-0.16 ± 0.58
12,LLLRSRSTRF,-0.233 ± 0.3
13,LLLTWFFPQHASRVNMSYSS,0.024 ± 0.39
14,LLLYDPREC,-1.46 ± 0.91
15,LLLYSGEFNS,-0.433 ± 0.39
16,LLNAAHIEGT,0.064 ± 0.59
17,LLNCLWDKMWTGLVRCIKNG,-0.075 ± 0.35
18,LLNVVCRARVWS,-0.241 ± 0.32
19,LLPGLIEWSVGLMCLIL,0.023 ± 0.9
20,LLPYSLMLRDLGFLKHYLGV,-0.264 ± 0.61
21,LLRCPYLNFGASMYLIRFCS,0.404 ± 0.53
22,LLRGTIFVNDRVTID,0.973 ± 0.59
23,LLRWFALGTYVSGWRWDERR,-0.179 ± 0.32
24,LLTDRRDSSSRNDTLVRKGM,2.23 ± 0.091
25,LLTSIPRRVIARVSEGFCCN,-0.311 ± 0.71

row,Substance,amyloid nucleation score
1,LLTTIGQTRMVIHKGIERNE,1.77 ± 0.14
2,LLVLYCALLMRLSGLGHAWG,-0.269 ± 0.51
3,LLVMVVMGCCA,0.163 ± 0.83
4,LLVPHYFLEL,0.222 ± 0.43
5,LLVRNMSNVVPLMFSIPSNV,0.458 ± 0.65
6,LLWISRTRPYWLLFSVWKLA,-0.107 ± 0.9
7,LLWTKFGYCYRIEWSAVWFF,-0.527 ± 0.52
8,LLYISSTVM,1.07 ± 0.38
9,LLYSMDRQVLMSAISLLSIT,0.903 ± 0.63
10,LMAYNLGRPFAPFNCNVMGR,-0.268 ± 0.98
11,LMHRFPSINRLHTAPMPRAT,0.58 ± 1.1
12,LMRRAAVFFAGSRAGSRCLT,-0.675 ± 0.4
13,LMRYALSIPRRAYVVRRLVM,0.444 ± 1.2
14,LMVFAIRDLNFRHTILQPVP,-0.081 ± 0.42
15,LMWKNSGNYKLRCYRVV,-0.065 ± 0.21
16,LNCNV,1.24 ± 0.76
17,LNCRGVLDRTKSRVSHNNES,3.38 ± 0.18
18,LNDNLGSMFSL,-0.772 ± 0.64
19,LNDPMAGRLNNVRSGCLDDV,-0.059 ± 0.43
20,LNFCSVRVMEEISMVWCMVF,4.24 ± 0.11
21,LNISQRRIYFWSYWLHHITY,-0.282 ± 0.6
22,LNLRGDRN,0.304 ± 0.29
23,LNNAKCKLVSIFHLGVWVGM,-1.12 ± 0.96
24,LNQRWCCFTISALR,7.702 ± 0.076
25,LNRFLYDSCLFSCYFGYMVA,-0.017 ± 0.25

row,Substance,amyloid nucleation score
1,LNTGCDANQILAVCSRGVGV,0.793 ± 0.43
2,LPCHLPRLVPKGYPSFTLYK,-0.672 ± 0.4
3,LPDTCCR,0.994 ± 0.46
4,LPFGGAWVSLCLLRVICILR,inactive
5,LPLGYRLLAQPCPESSRTPA,0.001 ± 0.53
6,LPRNYTLLMPAVYIYVLVSW,inactive
7,LQCQN,0.702 ± 0.4
8,LQFNMVYVCYGWSSVYARSG,0.409 ± 0.28
9,LQFNSLAVLGVPGEMNEQTG,-0.228 ± 0.58
10,LRCCRVN,-0.474 ± 0.42
11,LRCRQKKYAAYRGTAVYWLL,-0.236 ± 0.76
12,LRDTRAWVLN,-0.295 ± 0.43
13,LRELSVCWPT,-0.153 ± 0.44
14,LRISSFDMDNSVWFSRVYNY,0.844 ± 0.26
15,LRKPKIYVTNRPTQGYGSTA,0.169 ± 0.55
16,LRLCWLNQVRNKQGL,-0.481 ± 0.92
17,LRLLSNVKWTKCS,0.367 ± 0.97
18,LRLRVTNVLILGSLGIDEMY,2.37 ± 0.28
19,LRPKWVAGDVLFQIYPWTRR,0.629 ± 0.85
20,LRPSPKVWHDFWGMM,0.437 ± 0.47
21,LRRFLPMALDDED,-0.676 ± 1.4
22,LRRSTFASVDLRRADFIKLF,0.165 ± 0.69
23,LRRVMFHRGMCHSVVRNGFG,-1.48 ± 1.6
24,LRSRR,1.41 ± 0.76
25,LRTCFEQRENMIA,-0.229 ± 0.79
